According to the nanobody polyreactivity screen of Harvey et al. (2022):

Test: yeast display, Sf9 membrane polyspecificity reagent, FACS + sequencing; frameworks hold sequencing errors
Method in brief: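 A nanobody's polyreactivity label depends on the gate it was sorted from. Yeast display cells were stained with 10% biotinylated, detergent-solubilized Sf9 membrane reagent for 1 hour at 4 °C, enriched on streptavidin microbeads and sorted by FACS. The low and high (top ~1%) gates were set on anti-HA fluorescence for expression and streptavidin fluorescence for reagent binding.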

Sequence	polyreactivity (PSR sort gate)
QVQLVESGGGLVQAGGSLRLSCAASGNTFYGYAMGWYRQAPGKERELVASITLSGDSTYYADSVKGRFTISRDNAKNTVYLQMNSLKPADTAVYYCAGVYTYPLGYYHYTYDYWGQGTQVTVSS	low polyreactivity
QVQLVESGGGLVQAGGSLRLSCAASGNTFYGYSMGWYRQAPGKERELVASITLSGDSTYYADSVKGRFTISRDNAKNTVYLQMNSLKPEDTAVYYCARRSRESYEYDYWGQGTQVTVSS	low polyreactivity
QVQLVESGGGLVQAGGSLRLSCAASGNTFYHYAMGWYRQAPVKERELVAGIRYNGGSTYYADSVKGRFTISRDNAKNTVYLQMISLKPEDTAVYYCATRGRTAWYTMDYWGQGTQVTVSS	high polyreactivity
QVQLVESGGGLVQAGGSLRLSCAASGNTFYLYAMGWYRQAPGKEREFVAAITGNGGSTYYADSVKGRFTISRDNAKNTVYLQMNSLKPEDTEVYYCAATFWGYNQYDYWGQGTQVTVSS	high polyreactivity
QVQLVESGGGLVQAGGSLRLSCAASGNTFYRNAMGWYRQAPGKDRELVAAIDYGGSTTYYADSVKGRFTISRDNSKNTVYLQMNSLKPEDTAVYYCAAREYRIGHVQPMDYWGQGTQVTVSS	high polyreactivity
QVQLVESGGGLVQAGGSLRLSCAASGNTFYVKVMGWSRQAPGKERELVARITTSGGSTSYAESVKGRFTISRDNAKNTVSFQMNSMKPEDTAVYYCAASYHAFQNWEYDYWGQGTQVTVSS	low polyreactivity
QVQLVESGGGLVQAGGSLRLSCAASGNTIDRYDMGWYRQPPGKEREFVAAITASAGSTYADSVKGRFTISRDNAKNTVYLQMNSLKPEDSAVYYCNAGNSSTGVDRYDYWGQGTQVTVSS	low polyreactivity
QVQLVESGGGLVQAGGSLRLSCAASGNTIDSYGMGWYRQAPGKERELVAAISTSGGSTYYADSVKGRFTISRDNAKNTVYLQMNSLKPEDTAVYYCNATWTMTYDYWGQGTQVTVSS	low polyreactivity
QVQLVESGGGLVQAGGSLRLSCAASGNTIGKYAMGWYRQAPGKETELVATITRRGGSTYYADSVKGRFTISRDNAKNTVYLQMNSLKPEDTAVYYCNRAVTYGTYDYWGQGTQVTVSS	high polyreactivity
QVQLVESGGGLVQAGGSLRLSCAASGNTLDWYAMGGSRQAPGKERELVAAISSAGSTSYADSVKGRFTISRDNAKNTVYLQMNSLKPEDTAVYYCNVDVYSKDANFQSFASEYDYWGQGTQVTVSS	low polyreactivity
QVQLVESGGGLVQAGGSLRLSCAASGNTLGYYAMGWYRPAPGKERELVATISDDGTTYYADSVKGRFTISRDNAKNTVSLQMNSLKPEDTAVYYCATDGSAQYSMDYWGQGTQVTVSS	low polyreactivity
QVQLVESGGGLVQAGGSLRLSCAASGNTLRYNVMGWYRQAPGKERELVAAISGGGSTSYTDSVKGRLTISRDNAKNTVYLQMNSLKPEDTAVYYCATRSFVGGRGRDSDYWGQGTQVTVSS	low polyreactivity
QVQLVESGGGLVQAGGSLRLSCAASGNTLSFYTMGWYRQAPGKERELVAAISSDGTTYYADSVKGRFTISRDNAKNTVYLQMNSLKPEDTAVYYCAKAHYEWIWTRYDYWGQGTQVTVSS	low polyreactivity
QVQLVESGGGLVQAGGSLRLSCAASGNTLVYYAMGWYRQAPGKERELVADISSSGGITYYADSVKGRFTISRDNAKNTVYLLMNSLKPVDTAVYYCAVDYPLYYWYLYNYWGQGTQVTVSS	low polyreactivity
QVQLVESGGGLVQAGGSLRLSCAASGNTLYTNAMGWYRQAPGKERELVAVISRGGSTYYADSVKGRFTISRDNAKNTVYLQMNSLKPEDTAVYYCATYGSSWSRAYGYWGQGTQVTVSS	high polyreactivity
QVQLVESGGGLVQAGGSLRLSCAASGNTVWYNAMGWFIQAPGKETELVAAISYSGGGTYYAVSVKGRFTISREKAKNTVYLQMNCLKPDDSAVYYCSADTLQRAFVLYDYWGQGTQVTVSS	low polyreactivity
QVQLVESGGGLVQAGGSLRLSCAASGNTVYYYGMGWYRQAPGKERDLVAAINYSGGSTYYADSVKGRNTISRDNAKNTVYLPMNSKKPEVTAVYYCNADYVPAYRDLASLADGYYWGQGTQVTVSS	low polyreactivity
QVQLVESGGGLVQAGGSLRLSCAASGNTYSYNAMGWYRQAPGKEREFVASISRRGGRTNYADSVKGRFTISRDNAKNTVYLQMNSLKPEDTAVYYCAATTVPLGDYWGQVTQVTVSS	high polyreactivity
QVQLVESGGGLVQAGGSLRLSCAASGPIYTYAMGWYRHAPGKERELVAAISRRGGSTYYADSVKGRFTISRDNAKNTVYLQMNSLKPEDTAVYYCAKERSFGDGNFDYEYWGQGTQVTVSS	high polyreactivity
QVQLVESGGGLVQAGGSLRLSCAASGPNFTKYAMGWYRPAPGKERELVAGISSRGTSTYYADSVKGRFTISRDNAKNTVYLQMNSLKPEDTAVYYCNKDSKSRFTYDYWGQGTQVTVSS	high polyreactivity

Sequence	polyreactivity (PSR sort gate)
QVQLVESGGGLVQAGGSLRLSCAASGPTFNRYTMGWYRQAPGKERELVATITGGGSTNYADSVKGRFTISRDNAKNTVYLQMNSLKPEDTAVYYCARAVVQSRGPPRYKTPYDYWGQGTQVTVSS	low polyreactivity
QVQLVESGGGLVQAGGSLRLSCAASGQIFVRNAMGWYRQAPGKERELVARISSGGSTNYADSVKGRFTISRDNAKNTVYLQMISLKPEDTAVYYCAARVYKGWPTHYDYWGQGTQVTVSS	high polyreactivity
QVQLVESGGGLVQAGGSLRLSCAASGRAFYGNAMGWYRPAPGKERELVASISQRGGSTYYADSVKGRFTISRDTAKNTVYLQMNSLKPEDTAVYYCAARRKGYSTGLGHRISYDYWGQGTQVTVSS	high polyreactivity
QVQLVESGGGLVQAGGSLRLSCAASGRFLVLNAMGWYRQAPAKERELVADLTSVGSTYYADSVKGRFTISRDNAKNTVDLQMNSLKPEDTAVYYFAADWNTYPDYQQSYFVSYEYNYWGQGTQVTVSS	low polyreactivity
QVQLVESGGGLVQAGGSLRLSCAASGRICPKKGMGWYRQAPWKERELVAAITSGTSTYYADSVKGRFTISRDNAKNTVYLQMNSLKPEDTAVYYCNAVHARYRCQGDYWGQGTQVTVSS	low polyreactivity
QVQLVESGGGLVQAGGSLRLSCAASGRICVYYAMGWYRQAPGKEREFVAAISWSGGSTYYADSVKGRFTISRDNAKNTVYLQMNSLKPEDTAVYYCAADVPWTVYYRWYDYWGQGTLVTVSS	low polyreactivity
QVQLVESGGGLVQAGGSLRLSCAASGRIDAYTMGWYRQAPGKERELVAAISTSTSNTYYADSVKGRFTISRDNAKNTVYLQMNSLKPEDTAVYYCDEAYYSPWWGYYWGQGTQVTVSS	low polyreactivity
QVQLVESGGGLVQAGGSLRLSCAASGRIDHNAMDWYRQAPGKERELVAAITWSGGGTYYADSVKGRFTISRDNAKNTVYLQMNSLKPEDTAVYYCNVRRAFSGWRGYDYWGQGTQVTVSS	high polyreactivity
QVQLVESGGGLVQAGGSLRLSCAASGRIDLYNDMGWYRQAPGKERELVAAITWRSGSTYYADSVKGRFTFSRDNAKNTFYCQMNSLNPEDTAVYYCAKRGSGYKQDFKSYSGHYWGHGTQVTVSS	high polyreactivity
QVQLVESGGGLVQAGGSLRLSCAASGRIFAAYAMGWYRQAPGKERELVAAITRRGSTYYADSVKGRFTISRDNAKNTVYLQMNSLKPEDTAVYYCNKVPLFQYSTAWYDYWGQGTQVTVSS	high polyreactivity
QVQLVESGGGLVQAGGSLRLSCAASGRIFAFYALGLYRQAPGKEREFVAAITYSGGNTNYADSVKGRFTISRDNAKNTVYLQMNSLKPEDTAVYYCAADLVYGVYYQEDYWGQGTQVTVSS	low polyreactivity
QVQLVESGGGLVQAGGSLRLSCAASGRIFAGYAMGWYRQAPGKERELVAAIRSGGSTNYADSVKGRFTISRDNAKNTVYLQMNSLKPEDTAVYYCAAETPVIPWDEMDYWGQGTQVTVSS	low polyreactivity
QVQLVESGGGLVQAGGSLRLSCAASGRIFAGYAMGWYRQAPGKERELVAAISSGGGSTYYADSVKGRFTISRDNAKNTVYLQMNSLKPEDTAVYYCARDSYPHGRARFDYWGQGTQVTVSS	high polyreactivity
QVQLVESGGGLVQAGGSLRLSCAASGRIFAGYAMGWYRQAPGKERELVAAITGTGDRTYYADSVKGRFTISRDNAKNTVYLQMNSLKPEDTAVYYCAAAYGAYYPWGYDYWGQGTQVTVSS	low polyreactivity
QVQLVESGGGLVQAGGSLRLSCAASGRIFAKNAMGWYRQAPGKERELVAAINHSGGSTYYADSVKGRFTISRDNAKNTVYLQMNSLKPEDTAVYYCAALGSGVPRYYYWGQGTQVTVSS	high polyreactivity
QVQLVESGGGLVQAGGSLRLSCAASGRIFAKNTMGWYRQAPGKERELVAAITWSSGNTDYADSVKGRFTISRDNAKNTVYLQMNSLKPEDTAVYYCNARFYYRPLRFSYDYWGQGTQVTVSS	high polyreactivity
QVQLVESGGGLVQAGGSLRLSCAASGRIFAKYAMGWYRQAPGKERELVAAISLSGGRTYYADSVKGRFTISRDNAKNTVYLQMNSLKPEDTAVYYCAAEFYPIRYYGGYDYWGQGTQVTVSS	low polyreactivity
QVQLVESGGGLVQAGGSLRLSCAASGRIFALNALGWYRQAPGKERELVATFRWSGGSTYYADSVKGRFTISRDYAKNTVYLQMNSLKPEDTAVYYCAAYSGNRRTYDYWGHGTQVTVSS	high polyreactivity
QVQLVESGGGLVQAGGSLRLSCAASGRIFALNVMGWYRQAPGKERELVAAITWSSGRTYYADSVKGRFTISRDNAKNTVYLQMNSLKPEDTAVYYCAAAFRPRAIELSYYYWGQGTQVTVSS	high polyreactivity
QVQLVESGGGLVQAGGSLRLSCAASGRIFAPYDMGWYRQAPGKERELVASITSGGSTNYTDSVKGRFTISRVNAKNTVYLQMNSLIPEDTAVYYCNTAKISEPIDPRQRVWGRTYDYWGQGTQVTVSS	low polyreactivity
